# US20240261446A1 (UNIVERSIT DE LI GE, published 2024)
# B1: anti-CD38 nanobody 2F8 (Nb2F8) with C-terminal hexahistidine tag (VHH)
# VHH: QVQLVESGGGSVQAGGSLRLSCAASGYTDSDYIMAWFRQAPGKEREVVATIYIGGTYIHYADSVKGRFTISRDNAENTVYLQMNNLKPEDTAMYYCAATKWRPFISTRAAEYNYWGQGTLVTVSS
# notes: Produced in E. coli WK6 with a His6 tag and also in an untagged form; The flow cytometry used the His-tagged form (anti-His detection); also called sdAb 2F8
# B2: Nb2F8-PNA1 conjugate (VHH)
# VHH: B1 VHH
# modifications: the C-terminal GGGSS is continued by the peptide nucleic acid a-g-t-c-t-g-g-a-t-g-t-a-g-t-c (SEQ ID NO: 15) and then E-K(DOTA)-AEEA-E-NH2
# notes: Made by Sortase A ligation of PNA1 to Nb2F8-FL-SR-His6 and purified by reverse IMAC; also called nanobody 2F8 coupled with the PNA1
# B3: ^111In-DTPA-Nb2F8 (VHH)
# VHH: B1 VHH
# modifications: CHX-A''-DTPA on lysine epsilon-amino groups (positions not stated), chelating Indium-111
# B4: sdAb 2F8 conjugated to the bifunctional chelator DTPA (2F8-DTPA) (VHH)
# VHH: B1 VHH
# modifications: CHX-A''-DTPA conjugated to the free epsilon-amino groups of lysines (number and positions not stated)
# notes: also called Nb2F8-DTPA conjugate
# Experiments:
# [1] = target: T1, recombinant biotinylated CD38 (human, UniProt P28907 43-300, biotinylated (sites not given)); experiment: BLI
# T1 construct: also called biotinylated CD38 antigen; biotin-labelled recombinant CD38 protein
# T1 sequence: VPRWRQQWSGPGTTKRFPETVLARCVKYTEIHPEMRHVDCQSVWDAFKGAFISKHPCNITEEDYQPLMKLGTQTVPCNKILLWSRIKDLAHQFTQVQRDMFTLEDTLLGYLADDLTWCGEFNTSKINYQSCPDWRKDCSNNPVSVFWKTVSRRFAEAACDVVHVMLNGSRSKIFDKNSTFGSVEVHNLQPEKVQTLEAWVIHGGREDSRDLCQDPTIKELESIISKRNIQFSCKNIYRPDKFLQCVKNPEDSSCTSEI
# [2] = target: T1, recombinant biotinylated CD38; experiment: BLI, biotinylated CD38 on streptavidin sensors, 1:1 model
# [3] = target: T1, recombinant biotinylated CD38; experiment: biolayer interferometry; biotinylated CD38 on streptavidin sensors; 1:1 binding model
# Experimental: Next, the ability of the anti-CD38 nanobodies to recognise the biotinylated CD38 antigen was investigated by Biolayer Interferometry (BLI) that allows determination of the binding kinetics parameters. The binding affinities were estimated by testing different concentrations (seven) of nanobodies with BLI. These experiments were realised in a 96-well plate and consisted of different steps. First, recombinant and biotinylated CD38 (10 μg/mL) was loaded on the surface of streptavidin-coupled sensors and washed using a PBS-based buffer (PBS 50 mM pH 7, BSA 0.1%, Tween 0.02%) in order to remove any unbound CD38. Then, biocytin was added to saturate the sensors and to avoid non-specific interactions during the subsequent association step. Afterwards, the nanobodies were diluted at concentrations and brought in contact with the CD38 coated sensors to monitor the association of the nanobodies to the receptors. […] Octet Data Analysis software version 8.0 was used for curve fitting and the determination of the binding parameters, including the KD, using a 1:1 binding model.
# [4] = target: T1, recombinant biotinylated CD38; experiment: BLI, biotinylated CD38 on streptavidin sensors, 10 to 150 nM conjugate, 1:1 model
# Experimental: First, recombinant and biotinylated CD38 (1 μg/mL) was loaded on the surface of streptavidin-coupled sensors and washed using a PBS-based buffer in order to remove any unbound CD38. Then, biocytin was added to saturate the sensors and to avoid non-specific interactions during the subsequent association step. Afterwards, the nanobodies-PNA1 were diluted at concentrations and brought in contact with the CD38 coated sensors to monitor the association of the nanobodies to the receptors. Finally, the sensors were placed in a fresh buffer in order to measure the dissociation rate of the nanobodies-PNA1 from the receptors. Octet Data Analysis software version 8.0 was used for curve fitting and the determination of the binding parameters, including the KD, using a 1:1 binding model.
# [5] = target: T2, human CD38 receptor expressed on cells (RPMI-8226 and other CD38+ cell lines) (human, UniProt P28907 1-300); experiment: saturation binding of the radiolabelled nanobody on CD38+ RPMI-8226 cells, 1 hour at 4 °C
# T2 construct: Endogenous CD38 of human myeloma and lymphoma cell lines; also called CD38^+ RPMI-8226 cells
# T2 sequence: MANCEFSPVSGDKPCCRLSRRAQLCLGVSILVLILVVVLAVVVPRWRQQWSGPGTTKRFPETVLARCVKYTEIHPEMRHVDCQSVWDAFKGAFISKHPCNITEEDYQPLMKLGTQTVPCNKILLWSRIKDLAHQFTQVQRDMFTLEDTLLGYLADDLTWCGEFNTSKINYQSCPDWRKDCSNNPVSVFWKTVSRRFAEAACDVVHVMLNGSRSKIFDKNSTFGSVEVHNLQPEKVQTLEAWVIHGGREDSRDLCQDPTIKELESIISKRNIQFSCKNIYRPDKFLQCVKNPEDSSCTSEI
# [6] = target: T1, recombinant biotinylated CD38; experiment: BLI, immobilised CD38 on SA sensors, OctetHTX, conjugate 100 to 20 nM
# Experimental: Values are from a serial dilution of conjugate from 100 to 20 nM.
binder,measurement,setting,value
B1,Kd,[1],1.46 nM
same,Kd,[2],0.73 nM
same,Kd,[3],0.734 nM
B2,Kd,[4],13.4 nM
B3,Kd,[5],16.7 nM
B4,Kd,[6],1.6 nM
same,koff,[6],0.000412 s⁻¹
same,kon,[6],258000 M⁻¹ s⁻¹
